# Measured values: CN1649900A (dated 2005)
# Where no end group is shown, it is not given here. [ ]: non-standard residue; d: D form. sY = N[C@@H](Cc1ccc(OS(=O)(=O)O)cc1)C(=O)O
# T1: human lumican from plasma (human, UniProt P51884 19-338)
# T1 construct: also called H P-配体2
# T1 sequence (looked up): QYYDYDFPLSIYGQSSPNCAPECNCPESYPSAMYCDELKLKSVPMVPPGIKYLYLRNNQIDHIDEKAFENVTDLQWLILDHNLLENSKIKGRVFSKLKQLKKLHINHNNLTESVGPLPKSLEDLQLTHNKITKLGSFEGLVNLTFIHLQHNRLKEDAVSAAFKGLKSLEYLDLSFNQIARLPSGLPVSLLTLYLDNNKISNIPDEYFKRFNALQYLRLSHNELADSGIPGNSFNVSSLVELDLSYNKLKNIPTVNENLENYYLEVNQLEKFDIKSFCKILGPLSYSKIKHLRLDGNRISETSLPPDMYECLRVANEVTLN
# T2: PSGL-1 (P-selectin glycoprotein ligand-1, CD162) on KG-1 cells or in KG-1 membrane preparations (human, UniProt Q14242 42-412, sulfated tyrosines in the N-terminal region)
# T2 construct: whole, on cells; entries on KG-1 cells, lysates and membrane fractions are written against this molecule; also called KG-1细胞上Y1配体
# T2 sequence (looked up): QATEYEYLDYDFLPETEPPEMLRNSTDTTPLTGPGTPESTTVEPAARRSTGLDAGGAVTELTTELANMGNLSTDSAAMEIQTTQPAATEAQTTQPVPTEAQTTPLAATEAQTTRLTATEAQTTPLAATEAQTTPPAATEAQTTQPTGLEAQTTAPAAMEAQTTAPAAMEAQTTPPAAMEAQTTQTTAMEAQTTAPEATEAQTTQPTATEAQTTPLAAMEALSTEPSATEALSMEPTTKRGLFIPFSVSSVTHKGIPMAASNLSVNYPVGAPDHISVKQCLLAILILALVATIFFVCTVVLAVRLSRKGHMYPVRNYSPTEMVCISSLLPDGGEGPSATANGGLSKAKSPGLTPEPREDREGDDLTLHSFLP
# B1: Y1 scFv (human single-chain Fv antibody fragment Y1) (scFv)
# scFv: EVQLVESGGGVVRPGGSLRLSCAASGFTFDDYGMSWVRQAPGKGLEWVSGINWNGGSTGYADSVKGRFTISRDNAKNSLYLQMNSLRAEDTAVYYCARMRAPVIWGQGTLVTVSRGGGGSGGGGSGGGGSSELTQDPAVSVALGQTVRITCQGDSLRSYYASWYQQKPGQAPVLVIYGKNNRPSGIPDRFSGSSSGNTASLTITGAQAEDEADYYCNSRDSSGNHVVFGGGTKLTVLGAAAEQKLISEEDLNGAA
# notes: Clone from the Nissim I phage display library; Used biotinylated in Western blots; detected with rabbit anti-scFv or anti-VL in FACS and ELISA; also called scFv Y1; scFv-Y1
# B2: Y17 scFv (scFv)
# scFv: EVQLVESGGGVVRPGGSLRLSCAASGFTFDDYGMSWVRQAPGKGLEWVSGINWNGGSTGYADSVKGRFTISRDNAKNSLYLQMNSLRAEDTAVYYCARLTHPYFWGQGTLVTVSRGGGGSGGGGSGGGGSSELTQDPAVSVALGQTVRITCQGDSLRSYYASWYQQKPGQAPVLVIYGKNNRPSGIPDRFSGSSSGNTASLTITGAQAEDEADYYCNSRDSSGNHVVFGGGTKLTVLGAAAEQKLISEEDLNGAA
# notes: Second scFv clone selected on platelets
# B3: CONY1, Y1 scFv monomer in which the myc tag is deleted or replaced by Lys-Ala-Lys (KAK) (scFv)
# scFv: EVQLVESGGGVVRPGGSLRLSCAASGFTFDDYGMSWVRQAPGKGLEWVSGINWNGGSTGYADSVKGRFTISRDNAKNSLYLQMNSLRAEDTAVYYCARMRAPVIWGQGTLVTVSRGGGGSGGGGSGGGGSSELTQDPAVSVALGQTVRITCQGDSLRSYYASWYQQKPGQAPVLVIYGKNNRPSGIPDRFSGSSSGNTASLTITGAQAEDEADYYCNSRDSSGNHVVFGGGTKLTVLG
# notes: also called CONY1 scFv; Y1-kak
# B4: S-S Y1 dimer (disulfide-bridged dimer of Y1 scFv with a cysteine added at the carboxy terminus) (other)
# chain: EVQLVESGGGVVRPGGSLRLSCAASGFTFDDYGMSWVRQAPGKGLEWVSGINWNGGSTGYADSVKGRFTISRDNAKNSLYLQMNSLRAEDTAVYYCARMRAPVIWGQGTLVTVSRGGGGSGGGGSGGGGSSELTQDPAVSVALGQTVRITCQGDSLRSYYASWYQQKPGQAPVLVIYGKNNRPSGIPDRFSGSSSGNTASLTITGAQAEDEADYYCNSRDSSGNHVVFGGGTKLTVLGAAAEQKLISEEDLNGAAC
# B5: Y1-IgG (full-size IgG1 lambda antibody built from the Y1 Fv) (antibody)
# chain 1: EVQLVESGGGVVRPGGSLRLSCAASGFTFDDYGMSWVRQAPGKGLEWVSGINWNGGSTGYADSVKGRFTISRDNAKNSLYLQMNSLRAEDTAVYYCARMRAPVIWGQGTLVTVSR
# chain 2: SELTQDPAVSVALGQTVRITCQGDSLRSYYASWYQQKPGQAPVLVIYGKNNRPSGIPDRFSGSSSGNTASLTITGAQAEDEADYYCNSRDSSGNHVVFGGGTKLTVLG
# Key:
# [1] = target: B1; assay: competition ELISA, Y1 scFv on glycocalicin, peptide 1, 10, 100 μM
# [2] = target: T1, human lumican from plasma; assay: binding to human plasma proteins
# [3] = target: T2, PSGL-1 (P-selectin glycoprotein …); assay: Western blot
# [4] = target: T2, PSGL-1 (P-selectin glycoprotein …); assay: FACS on KG-1 cells
# [5] = target: T2, PSGL-1 (P-selectin glycoprotein …); assay: second radioreceptor competition on KG-1 cells, labelled CONY1
# [6] = target: T2, PSGL-1 (P-selectin glycoprotein …); assay: radioreceptor assay, ELISA and FACS
# [7] = target: T2, PSGL-1 (P-selectin glycoprotein …); assay: radioreceptor competition on KG-1 cells, tracer 125I-Y1-IgG 2 ng/tube
binder,measurement,setting,value
"VRPEHPAETEYESLYPEDDL [F-YY, non-sulfated peptide from the fibrinogen γ prime chain]",binding result,[1],no binding (tested: 100μM)
B1,binding result,[2],binds
same,binding result,[3],binds
B2,binding result,[4],binds
"VRPEHPAETE[sY]ESL[sY]PEDDL [F-Y*Y*, sulfated peptide from the fibrinogen γ prime chain]",binding result,[1],no binding (tested: 100μM)
B3,Kd,[5],~1000 nM
B4,fold binding over Y1 scFv monomer,[6],≥ 20 fold
same,Kd,[5],50 nM
same,fold higher affinity than CONY1,[5],20 fold
same,Kd,[7],40 nM
same,fold higher avidity than CONY1,[7],30 fold
same,fold lower avidity than the whole Y1 antibody,[7],2 fold
B5,Kd,[7],~20 nM
